Results as given in article PMC4713166, “Chicken scFvs with an Artificial Cysteine for Site-Directed Conjugation” (PLoS ONE, 2016).

Target: T1, recombinant human Fc-tagged PSA (Homo sapiens, UniProt P07288)
T1 construct: prostate-specific antigen (PSA), human; also called prostate-specific antigen; recombinant Fc-tagged PSA
Test: ELISA; enzyme immunoassay: recombinant human Fc-tagged PSA coated on the plate (0.1 M NaHCO3 pH 8.6, overnight at 4 C), blocked with 3% BSA in PBS; 250 ng cotinine-conjugated scFv-C kappa fusion protein in 50 ul, 1 h at 37 C; HRP-conjugated anti-cotinine IgG1 or HRP-conjugated anti-human C kappa antibody, TMB, optical density at 450 nm
Details: both partners purified

T1 sequence (P07288 18-261): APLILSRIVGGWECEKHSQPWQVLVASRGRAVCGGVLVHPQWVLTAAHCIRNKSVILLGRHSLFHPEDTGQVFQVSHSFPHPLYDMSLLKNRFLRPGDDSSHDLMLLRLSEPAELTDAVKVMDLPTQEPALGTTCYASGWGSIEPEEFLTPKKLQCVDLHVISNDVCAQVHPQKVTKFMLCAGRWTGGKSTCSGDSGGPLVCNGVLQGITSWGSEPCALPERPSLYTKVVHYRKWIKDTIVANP

Row | Binder | binding result
1 | charge-variant artificial H13 cysteine-mutant scFv RCK, scFv-C kappa fusion protein cotinine conjugate (scFv, V domains shown, VL as in m2; VH as in m6 (GenBank KP764767 with cysteine at Kabat H13), the flanking residues of H13 changed from QCP to RCK; source: HEK293F, transfected, purified (KappaSelect); reduced with TCEP-HCl, treated with dehydroascorbic acid, conjugated with GMBS-coupled cotinine) VH: AVTLDESGGGLRCKGGALSLVCKASGFTFSSYDMGWVRQAPGKGLEWVAGIDDDGSYPNYGPAVKGRATISRDNGQSTVRLQLNNLRAEDTGTYFCAKGIESDSDGYMTAEEIDAWGHGTEVIVSS VL: ALTQPSSVSANLGGTVKITCSGGYSYYGWYQQKSPGSAPVTVIYESTKRPSNIPSRFSGSTSGSTGTLTITGVQADDAAVYYCGSWDSSSVGIFGAGTTLTVL | binds
2 | charge-variant artificial H13 cysteine-mutant scFv DCE, scFv-C kappa fusion protein cotinine conjugate (scFv, V domains shown, VL as in m2; VH as in m6 (GenBank KP764767 with cysteine at Kabat H13), the flanking residues of H13 changed from QCP to DCE; also called DEC (as printed once); source: HEK293F, transfected, purified (KappaSelect); reduced with TCEP-HCl, treated with dehydroascorbic acid, conjugated with GMBS-coupled cotinine) VH: AVTLDESGGGLDCEGGALSLVCKASGFTFSSYDMGWVRQAPGKGLEWVAGIDDDGSYPNYGPAVKGRATISRDNGQSTVRLQLNNLRAEDTGTYFCAKGIESDSDGYMTAEEIDAWGHGTEVIVSS VL: ALTQPSSVSANLGGTVKITCSGGYSYYGWYQQKSPGSAPVTVIYESTKRPSNIPSRFSGSTSGSTGTLTITGVQADDAAVYYCGSWDSSSVGIFGAGTTLTVL | binds
3 | charge-variant artificial H13 cysteine-mutant scFv ECD, scFv-C kappa fusion protein cotinine conjugate (scFv, V domains shown, VL as in m2; VH as in m6 (GenBank KP764767 with cysteine at Kabat H13), the flanking residues of H13 changed from QCP to ECD; source: HEK293F, transfected, purified (KappaSelect); reduced with TCEP-HCl, treated with dehydroascorbic acid, conjugated with GMBS-coupled cotinine) VH: AVTLDESGGGLECDGGALSLVCKASGFTFSSYDMGWVRQAPGKGLEWVAGIDDDGSYPNYGPAVKGRATISRDNGQSTVRLQLNNLRAEDTGTYFCAKGIESDSDGYMTAEEIDAWGHGTEVIVSS VL: ALTQPSSVSANLGGTVKITCSGGYSYYGWYQQKSPGSAPVTVIYESTKRPSNIPSRFSGSTSGSTGTLTITGVQADDAAVYYCGSWDSSSVGIFGAGTTLTVL | binds
4 | charge-variant artificial H13 cysteine-mutant scFv ECE, scFv-C kappa fusion protein cotinine conjugate (scFv, V domains shown, VL as in m2; VH as in m6 (GenBank KP764767 with cysteine at Kabat H13), the flanking residues of H13 changed from QCP to ECE; source: HEK293F, transfected, purified (KappaSelect); reduced with TCEP-HCl, treated with dehydroascorbic acid, conjugated with GMBS-coupled cotinine) VH: AVTLDESGGGLECEGGALSLVCKASGFTFSSYDMGWVRQAPGKGLEWVAGIDDDGSYPNYGPAVKGRATISRDNGQSTVRLQLNNLRAEDTGTYFCAKGIESDSDGYMTAEEIDAWGHGTEVIVSS VL: ALTQPSSVSANLGGTVKITCSGGYSYYGWYQQKSPGSAPVTVIYESTKRPSNIPSRFSGSTSGSTGTLTITGVQADDAAVYYCGSWDSSSVGIFGAGTTLTVL | binds
5 | artificial cysteine-mutant scFv L5, scFv-C kappa fusion protein cotinine conjugate (scFv, V domains shown, VL as in m3: GenBank KP764766 with Kabat residue L5 replaced with cysteine; VH as in m2; that it was a cotinine conjugate of the scFv-C kappa protein is inferred from that detection; also called L5 mutant scFv; source: HEK293F, transfected, purified (KappaSelect); conjugated with GMBS-coupled cotinine) VH: AVTLDESGGGLQTPGGALSLVCKASGFTFSSYDMGWVRQAPGKGLEWVAGIDDDGSYPNYGPAVKGRATISRDNGQSTVRLQLNNLRAEDTGTYFCAKGIESDSDGYMTAEEIDAWGHGTEVIVSS VL: ALCQPSSVSANLGGTVKITCSGGYSYYGWYQQKSPGSAPVTVIYESTKRPSNIPSRFSGSTSGSTGTLTITGVQADDAAVYYCGSWDSSSVGIFGAGTTLTVL | binds

Target: T1, recombinant human Fc-tagged PSA
Test: ELISA; phage enzyme immunoassay: recombinant human Fc-tagged PSA coated on the microtiter plate (5 ug/ml in PBS, overnight at 4 C), blocked with 3% BSA in PBS; scFv-displaying phages in culture supernatant; HRP-conjugated anti-M13 antibody, ABTS, optical density at 405 nm
Details: one partner purified

Row | Binder | binding result
6 | artificial cysteine-mutant scFv L5, scFv-pIII fusion protein displayed on phage (scFv, V domains shown, VH as in m2; Order VL-linker-VH worked out as for m2) VH: AVTLDESGGGLQTPGGALSLVCKASGFTFSSYDMGWVRQAPGKGLEWVAGIDDDGSYPNYGPAVKGRATISRDNGQSTVRLQLNNLRAEDTGTYFCAKGIESDSDGYMTAEEIDAWGHGTEVIVSS VL: ALCQPSSVSANLGGTVKITCSGGYSYYGWYQQKSPGSAPVTVIYESTKRPSNIPSRFSGSTSGSTGTLTITGVQADDAAVYYCGSWDSSSVGIFGAGTTLTVL | binds
7 | artificial cysteine-mutant scFv L7, scFv-pIII fusion protein displayed on phage (scFv, V domains shown, VH as in m2; Order VL-linker-VH worked out as for m2) VH: AVTLDESGGGLQTPGGALSLVCKASGFTFSSYDMGWVRQAPGKGLEWVAGIDDDGSYPNYGPAVKGRATISRDNGQSTVRLQLNNLRAEDTGTYFCAKGIESDSDGYMTAEEIDAWGHGTEVIVSS VL: ALTQCSSVSANLGGTVKITCSGGYSYYGWYQQKSPGSAPVTVIYESTKRPSNIPSRFSGSTSGSTGTLTITGVQADDAAVYYCGSWDSSSVGIFGAGTTLTVL | binds
8 | artificial cysteine-mutant scFv H16, scFv-pIII fusion protein displayed on phage (scFv, V domains shown, VL as in m2; Order VL-linker-VH worked out as for m2) VH: AVTLDESGGGLQTPGCALSLVCKASGFTFSSYDMGWVRQAPGKGLEWVAGIDDDGSYPNYGPAVKGRATISRDNGQSTVRLQLNNLRAEDTGTYFCAKGIESDSDGYMTAEEIDAWGHGTEVIVSS VL: ALTQPSSVSANLGGTVKITCSGGYSYYGWYQQKSPGSAPVTVIYESTKRPSNIPSRFSGSTSGSTGTLTITGVQADDAAVYYCGSWDSSSVGIFGAGTTLTVL | binds
9 | artificial cysteine-mutant scFv L6, scFv-pIII fusion protein displayed on phage (scFv, V domains shown, VH as in m2; Order VL-linker-VH worked out as for m2) VH: AVTLDESGGGLQTPGGALSLVCKASGFTFSSYDMGWVRQAPGKGLEWVAGIDDDGSYPNYGPAVKGRATISRDNGQSTVRLQLNNLRAEDTGTYFCAKGIESDSDGYMTAEEIDAWGHGTEVIVSS VL: ALTCPSSVSANLGGTVKITCSGGYSYYGWYQQKSPGSAPVTVIYESTKRPSNIPSRFSGSTSGSTGTLTITGVQADDAAVYYCGSWDSSSVGIFGAGTTLTVL | binds
10 | artificial cysteine-mutant scFv H13 (QCP), scFv-pIII fusion protein displayed on phage (scFv, V domains shown, VL as in m2; Order VL-linker-VH worked out as for m2) VH: AVTLDESGGGLQCPGGALSLVCKASGFTFSSYDMGWVRQAPGKGLEWVAGIDDDGSYPNYGPAVKGRATISRDNGQSTVRLQLNNLRAEDTGTYFCAKGIESDSDGYMTAEEIDAWGHGTEVIVSS VL: ALTQPSSVSANLGGTVKITCSGGYSYYGWYQQKSPGSAPVTVIYESTKRPSNIPSRFSGSTSGSTGTLTITGVQADDAAVYYCGSWDSSSVGIFGAGTTLTVL | binds
